What was measured:
Details in all cases: 20 nM; 72 h
MCF10A [1] = experiment: percent viability (nuclei count relative to siNT); higher = more viable cells
Procedure: (§1)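 After 72 h, cells were fixed and stained with Hoechst and anti-fibrillarin, and nucleoli per nucleus were counted with CellProfiler. Values are plate-adjusted percent effect for the one-nucleolus and 5+ nucleoli phenotypes, normalised to siNT (0%) and to the positive controls siNOL11 or siKIF11 (100%), as the mean of biological triplicates. Percent viability is the nuclei count relative to siNT.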

MCF10A [2] = experiment: 5+ nucleoli phenotype percent effect (relative to siNT 0% and siKIF11 100%); higher = more cells with five or more nucleoli
Procedure: as §1

MCF10A [3] = experiment: one-nucleolus phenotype percent effect (relative to siNT 0% and siNOL11 100%); higher = more cells with one nucleolus (ribosome biogenesis inhibition)
Procedure: as §1

Row | Sequence | percent viability (MCF10A [1]) [%] | 5+ nucleoli phenotype percent effect (MCF10A [2]) [%] | one-nucleolus phenotype percent effect (MCF10A [3]) [%]
1 | UGUCCUCUGUUCCUCAG [hsa-miR-6852-3p] | 17.2 | 9.01 | 43.6
2 | UGUCGUGGGGCUUGCUGGCUUG [hsa-miR-4440] | 58.9 | -27.6 | 2.65
3 | UGUCUACAUUAAUGAAAAGAGC [hsa-miR-3618] | 66.2 | -1.03 | 16.7
4 | UGUCUACUACUGGAGACACUGG [hsa-miR-934] | 37.1 | -13.1 | 22.5
5 | UGUCUAUACUCUGUCACUUUAC [hsa-miR-4796-5p] | 34.7 | -19.7 | 45.9
6 | UGUCUCUCGCCCUUGGCCUUAG [hsa-miR-6895-3p] | 19.4 | -32.5 | 34.7
7 | UGUCUCUGCUGGGGUUUCU [hsa-miR-593-3p] | 18.1 | -39.2 | 55.4
8 | UGUCUGCCCGCAUGCCUGCCUCU [hsa-miR-346] | 32.5 | -26.4 | 31
9 | UGUCUUACUCCCUCAGGCACAU [hsa-miR-550a-3p] | 60.2 | -24 | 15.4
10 | UGUCUUCUCUCCUCCCAAACAG [hsa-miR-6740-3p] | 9.9 | -27.6 | 42.8
11 | UGUCUUGCAGGCCGUCAUGCA [hsa-miR-431-5p] | 28.5 | -40.8 | 53.9
12 | UGUCUUUCUUCUCUCCCUUGCAG [hsa-miR-6830-3p] | 19.9 | -30.3 | 58
13 | UGUGACAAUAGAGAUGAACAUG [hsa-miR-4504] | 39.9 | -15.9 | 30.4
14 | UGUGACAGAUUGAUAACUGAAA [hsa-miR-542-3p] | 39.5 | -17.1 | 65.1
15 | UGUGACCCUAGAAUAAUUAC [hsa-miR-7973] | 29.4 | -4.82 | -2.95
16 | UGUGACUGCAUUAUGAAAAUUCU [hsa-miR-3118] | 26.7 | 5.27 | 20.9
17 | UGUGACUGGUUGACCAGAGGGG [hsa-miR-134] | 28 | -26.5 | 31.9
18 | UGUGACUUCUCCCCUGCCACAG [hsa-miR-6820-3p] | 32.3 | -7.76 | 22.3

Row | Sequence | percent viability (MCF10A [1]) [%] | 5+ nucleoli phenotype percent effect (MCF10A [2]) [%] | one-nucleolus phenotype percent effect (MCF10A [3]) [%]
19 | UGUGACUUUAAGGGAAAUGGCG [hsa-miR-3164] | 22.9 | 22 | 19.5
20 | UGUGAGGUUGGCAUUGUUGUCU [hsa-miR-1294] | 28.9 | -10.7 | 19
21 | UGUGAUAUCAUGGUUCCUGGGA [hsa-miR-3689a-5p] | 37.9 | -5.22 | 6.87
22 | UGUGAUAUCAUGGUUCCUGGGA [hsa-miR-3689b-5p] | 23.6 | -25.9 | 19
23 | UGUGAUAUCAUGGUUCCUGGGA [hsa-miR-3689e] | 30.9 | -30.6 | 4.57
24 | UGUGAUAUCGUGCUUCCUGGGA [hsa-miR-3689f] | 109 | 17.5 | -21.8
25 | UGUGCAAAUCCAUGCAAAACUGA [hsa-miR-19b-3p] | 82.4 | -2.64 | 4.13
26 | UGUGCAAAUCUAUGCAAAACUGA [hsa-miR-19a-3p] | 141 | 34.4 | -14.6
27 | UGUGCAGCAGGCCAACCGAGA [hsa-miR-3944-5p] | 69 | 4.63 | -7.88
28 | UGUGCGCAGGGAGACCUCUCCC [hsa-miR-933] | 78.3 | -8.45 | 4.65
29 | UGUGCUUGCUCGUCCCGCCCGCA [hsa-miR-636] | 111 | -6.7 | 5.25
30 | UGUGGAAGGUAGACGGCCAGAGA [hsa-miR-3190-3p] | 19.8 | -44 | 42.7
31 | UGUGGACAGUGAGGUAGAGGGAGU [hsa-miR-3138] | 47.9 | 2.7 | -2.72
32 | UGUGGGACUGCAAAUGGGAG [hsa-miR-4648] | 41.5 | -30.5 | 19.7
33 | UGUGGGAUCUGGAGGCAUCUGG [hsa-miR-4654] | 38.8 | -29.4 | 6.3
34 | UGUGGGUGGGAAGGACUGGAUU [hsa-miR-6748-5p] | 22.6 | -25.6 | 30.1
35 | UGUGGGUUCUGGGUUGGGGUGA [hsa-miR-6793-5p] | 14.3 | -24.1 | 30.2
36 | UGUGGUAGAUAUAUGCACGAU [hsa-miR-4536-5p] | 25.9 | -25.4 | 26.2

Source: the supplement of paper PMC10899765
